The target of this series is SARS-CoV-2 spike protein (SARS-CoV-2, UniProt P0DTC2 14-1213). Description: ELONA; binding buffer 50 mM HEPES pH 7.4, 100 mM NaCl, 5 mM KCl, 2 mM MgCl2, 1 mM CaCl2; […]. The note with it: protein: recombinant, chain copies: 3, label: biotin.

B1: aptamer 6.9 (ssDNA)
DNA: GCAATGGTACGGTACTTCCATGGCTGGTGCTTGAGGTGTGTGTGGGGGTAGGGCCAAAAGTGCACGCTACTTTGCTAA
Take B1: the binding result is recorded as “no binding”.

B2: aptamer 6.8 (ssDNA)
DNA: GCAATGGTACGGTACTTCCCGGGGCGGGCTGTCATGCCCATCCTACCGTGACCGCAAAAGTGCACGCTACTTTGCTAA
Turning to B2, the binding result (predicted partial stem-loops) is on record as “no binding”.

(Values after article PMC11117632, “Rapid and Sensitive Detection of Inactivated SARS-CoV-2 Virus via Fiber-Optic and Electrochemical Impedance Spectroscopy Based Aptasensors”.)
